Measurements as given in publication PMC2992793 (Structure (London, England : 1993), 2010).
Numbering of substitutions follows the chain as printed. In names and notes the source's numbering stands.

How the values were obtained:
[1] = target: T1, GST-μ2C K405A (rat, UniProt P84092 170-435, Lys405 to alanine); experiment: pull-down
T1 sequence (looked up): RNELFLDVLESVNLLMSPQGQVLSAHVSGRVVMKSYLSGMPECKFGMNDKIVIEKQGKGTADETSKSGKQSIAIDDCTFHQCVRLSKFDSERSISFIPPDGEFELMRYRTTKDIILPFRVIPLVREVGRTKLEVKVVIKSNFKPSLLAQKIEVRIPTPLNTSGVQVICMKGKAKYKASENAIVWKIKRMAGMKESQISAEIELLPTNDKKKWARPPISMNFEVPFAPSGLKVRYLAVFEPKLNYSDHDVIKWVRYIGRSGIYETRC

[2] = target: T2, GST-μ2C K213A (rat, UniProt P84092 170-435, Lys213 to alanine); experiment: pull-down
T2 sequence (looked up): T1 sequence (looked up) with K44A, A236K

[3] = target: T3, GST-μ2C wild type (μ2 170–435) (rat, UniProt P84092 170-435); experiment: pull-down
T3 sequence (looked up): T1 sequence (looked up) with A236K

[4] = target: T4, GST-μ2C E211A (rat, UniProt P84092 170-435, Glu211 to alanine); experiment: pull-down
T4 sequence (looked up): T1 sequence (looked up) with E42A, A236K

[5] = target: T5, GST-μ2C F407A (rat, UniProt P84092 170-435, Phe407 to alanine); experiment: pull-down
T5 sequence (looked up): T1 sequence (looked up) with A236K, F238A

[6] = target: T6, His-tagged μ2C (μ2 170–435), wild type (rat, UniProt P84092 170-435); experiment: pull-down
T6 sequence (looked up): T1 sequence (looked up) with A236K

[7] = target: T7, Dvl2 Lys446Ala (construct not stated) (murine, UniProt Q60838 1-736, Lys446Ala)
T7 sequence (looked up): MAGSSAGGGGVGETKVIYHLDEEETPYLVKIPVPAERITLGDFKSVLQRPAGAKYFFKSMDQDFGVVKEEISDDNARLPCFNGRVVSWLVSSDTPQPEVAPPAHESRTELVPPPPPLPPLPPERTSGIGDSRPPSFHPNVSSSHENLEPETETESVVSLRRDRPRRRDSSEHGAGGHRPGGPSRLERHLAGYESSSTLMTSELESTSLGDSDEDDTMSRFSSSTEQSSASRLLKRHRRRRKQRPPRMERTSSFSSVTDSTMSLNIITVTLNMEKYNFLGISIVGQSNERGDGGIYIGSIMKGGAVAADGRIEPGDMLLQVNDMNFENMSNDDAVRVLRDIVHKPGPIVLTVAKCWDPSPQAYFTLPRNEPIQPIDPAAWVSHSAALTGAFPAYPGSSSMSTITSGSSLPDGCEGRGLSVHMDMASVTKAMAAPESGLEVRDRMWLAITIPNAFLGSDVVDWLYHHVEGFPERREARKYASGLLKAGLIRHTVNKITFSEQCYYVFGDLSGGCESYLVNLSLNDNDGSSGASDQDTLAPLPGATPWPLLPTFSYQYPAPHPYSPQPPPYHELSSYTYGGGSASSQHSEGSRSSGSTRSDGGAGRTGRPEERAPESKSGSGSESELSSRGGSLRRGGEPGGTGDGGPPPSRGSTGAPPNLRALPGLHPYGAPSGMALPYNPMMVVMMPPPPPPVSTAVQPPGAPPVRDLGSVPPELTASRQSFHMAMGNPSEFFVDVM

[8] = target: T8, Dvl2 Lys446Met (construct not stated) (murine, UniProt Q60838 1-736, Lys446Met)
T8 sequence (looked up): T7 sequence (looked up) with A446M

B1: His-tagged Dvl2 407–588 (domain or fragment, murine, UniProt Q60838 407-588, looked up)
chain: SLPDGCEGRGLSVHMDMASVTKAMAAPESGLEVRDRMWLKITIPNAFLGSDVVDWLYHHVEGFPERREARKYASGLLKAGLIRHTVNKITFSEQCYYVFGDLSGGCESYLVNLSLNDNDGSSGASDQDTLAPLPGATPWPLLPTFSYQYPAPHPYSPQPPPYHELSSYTYGGGSASSQHSEG
- binding result [1]: binds
- binding result [2]: binds
- binding result [3]: binds
- binding result [4]: binds
- binding result [5]: binds

B2: GST-Dvl2 417–588, wild type (domain or fragment, murine, UniProt Q60838 417-588, looked up)
chain: LSVHMDMASVTKAMAAPESGLEVRDRMWLKITIPNAFLGSDVVDWLYHHVEGFPERREARKYASGLLKAGLIRHTVNKITFSEQCYYVFGDLSGGCESYLVNLSLNDNDGSSGASDQDTLAPLPGATPWPLLPTFSYQYPAPHPYSPQPPPYHELSSYTYGGGSASSQHSEG
- binding result [6]: binds

B3: GST-Dvl2 417–588 D441K (domain or fragment, murine, UniProt Q60838 417-588, looked up)
chain: B2 chain with D25K
- binding result [6]: binds

B4: GST-Dvl2 417–588 N451A (domain or fragment, murine, UniProt Q60838 417-588, looked up)
chain: B2 chain with N35A
- binding result [6]: binds

B5: GST-Dvl2 417–588 R489A (domain or fragment, murine, UniProt Q60838 417-588, looked up)
chain: B2 chain with R73A
- binding result [6]: binds

B6: μ2 (construct of the experiments not shown is not stated) (natural protein, rat, UniProt P84092 1-435, looked up)
chain: MIGGLFIYNHKGEVLISRVYRDDIGRNAVDAFRVNVIHARQQVRSPVTNIARTSFFHVKRSNIWLAAVTKQNVNAAMVFEFLYKMCDVMAAYFGKISEENIKNNFVLIYELLDEILDFGYPQNSETGALKTFITQQGIKSQHQTKEEQSQITSQVTGQIGWRREGIKYRRNELFLDVLESVNLLMSPQGQVLSAHVSGRVVMKSYLSGMPECKFGMNDKIVIEKQGKGTADETSKSGKQSIAIDDCTFHQCVRLSKFDSERSISFIPPDGEFELMRYRTTKDIILPFRVIPLVREVGRTKLEVKVVIKSNFKPSLLAQKIEVRIPTPLNTSGVQVICMKGKAKYKASENAIVWKIKRMAGMKESQISAEIELLPTNDKKKWARPPISMNFEVPFAPSGLKVRYLKVFEPKLNYSDHDVIKWVRYIGRSGIYETRC
- fold decrease of μ2 affinity against wild-type Dvl2 [7]: ~2 fold
- fold decrease of μ2 affinity against wild-type Dvl2 [8]: ~2 fold
